# Results from US10160993B2, “Tyrosine kinase biosensors and methods of use” (Purdue Research Foundation, priority 2014, dated 2018).
# No end group written: not given here. *: point of attachment. Biotin = O=C1N[C@H]2[C@H](CS[C@H]2CCCCC(=O)*)N1
# Columns and labels:
# Assay type in all cases: biochemical
# ALK kinase = ALK kinase (Homo sapiens, UniProt Q9UM73); experiment: ELISA assay of peptide phosphorylation by ALK kinase in vitro; conditions: 25 μM peptides, 0.1 unit kinase, 100 μM ATP, 10 mM Mg2+, pH 7.5, 35-38° C.
# Sequence of ALK kinase (Q9UM73 19-1620): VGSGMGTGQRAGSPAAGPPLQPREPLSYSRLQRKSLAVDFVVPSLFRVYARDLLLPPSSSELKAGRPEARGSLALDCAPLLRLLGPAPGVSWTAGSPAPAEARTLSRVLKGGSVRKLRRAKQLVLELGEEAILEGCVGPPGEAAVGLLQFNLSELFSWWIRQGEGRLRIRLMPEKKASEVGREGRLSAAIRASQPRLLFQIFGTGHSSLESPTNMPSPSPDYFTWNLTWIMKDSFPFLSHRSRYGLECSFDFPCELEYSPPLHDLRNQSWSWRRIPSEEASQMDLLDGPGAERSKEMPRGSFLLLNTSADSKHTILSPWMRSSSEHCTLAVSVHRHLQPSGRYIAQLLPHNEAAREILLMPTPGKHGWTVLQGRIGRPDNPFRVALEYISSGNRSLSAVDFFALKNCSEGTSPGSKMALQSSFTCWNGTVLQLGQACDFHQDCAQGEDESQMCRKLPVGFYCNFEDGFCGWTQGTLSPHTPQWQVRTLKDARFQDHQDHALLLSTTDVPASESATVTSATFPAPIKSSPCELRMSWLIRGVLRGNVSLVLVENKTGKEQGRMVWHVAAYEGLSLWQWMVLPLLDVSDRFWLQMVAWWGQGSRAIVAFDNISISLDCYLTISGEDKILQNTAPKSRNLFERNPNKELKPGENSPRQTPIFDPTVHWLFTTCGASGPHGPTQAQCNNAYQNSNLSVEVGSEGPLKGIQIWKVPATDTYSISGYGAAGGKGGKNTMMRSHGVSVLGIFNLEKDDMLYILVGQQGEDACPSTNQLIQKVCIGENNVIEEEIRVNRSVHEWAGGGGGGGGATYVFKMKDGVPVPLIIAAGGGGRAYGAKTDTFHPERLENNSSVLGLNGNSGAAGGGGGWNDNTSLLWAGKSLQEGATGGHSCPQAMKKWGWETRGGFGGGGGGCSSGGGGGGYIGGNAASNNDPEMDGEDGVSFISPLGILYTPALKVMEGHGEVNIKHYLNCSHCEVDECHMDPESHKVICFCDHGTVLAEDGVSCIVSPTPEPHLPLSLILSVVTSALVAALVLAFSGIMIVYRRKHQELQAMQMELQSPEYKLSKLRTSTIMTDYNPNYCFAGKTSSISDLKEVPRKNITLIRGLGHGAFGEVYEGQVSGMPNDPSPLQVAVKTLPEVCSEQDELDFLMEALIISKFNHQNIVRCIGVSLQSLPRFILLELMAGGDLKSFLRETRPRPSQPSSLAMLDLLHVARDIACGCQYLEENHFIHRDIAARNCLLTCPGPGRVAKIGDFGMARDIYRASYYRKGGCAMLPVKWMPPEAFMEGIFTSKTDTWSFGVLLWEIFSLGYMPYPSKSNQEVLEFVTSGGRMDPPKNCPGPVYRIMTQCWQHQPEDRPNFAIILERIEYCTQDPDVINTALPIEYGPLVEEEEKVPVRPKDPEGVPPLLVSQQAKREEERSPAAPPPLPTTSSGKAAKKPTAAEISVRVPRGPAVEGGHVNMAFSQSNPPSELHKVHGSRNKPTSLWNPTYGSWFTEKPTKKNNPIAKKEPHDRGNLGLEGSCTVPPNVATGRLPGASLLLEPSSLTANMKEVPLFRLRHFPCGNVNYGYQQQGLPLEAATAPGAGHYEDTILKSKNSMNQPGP
# Description: (§1) Referring now to FIG. 1 which illustrates ALAStide-A (SEQ. ID NO. 1) and ALAStide-B (SEQ. ID NO. 2) being phosphorylated by ALK kinase in vitro, the results are obtained by an enzyme-linked immunosorbent assay (ELISA). […] Total reaction volume is 50 μL, and reaction temperature is set between 35-38° C. At selected time points, 5 μL, sample was taken out and quenched in 20 μL 40 mM EDTA solution. The quenched samples were then used to perform ELISA assay.
# Abl = Abl (Homo sapiens, UniProt P00519); experiment: ELISA specificity assay, phosphorylation by Abl; conditions: conditions similar to ALK ELISA
# Sequence of Abl (P00519 whole entry, species assumed): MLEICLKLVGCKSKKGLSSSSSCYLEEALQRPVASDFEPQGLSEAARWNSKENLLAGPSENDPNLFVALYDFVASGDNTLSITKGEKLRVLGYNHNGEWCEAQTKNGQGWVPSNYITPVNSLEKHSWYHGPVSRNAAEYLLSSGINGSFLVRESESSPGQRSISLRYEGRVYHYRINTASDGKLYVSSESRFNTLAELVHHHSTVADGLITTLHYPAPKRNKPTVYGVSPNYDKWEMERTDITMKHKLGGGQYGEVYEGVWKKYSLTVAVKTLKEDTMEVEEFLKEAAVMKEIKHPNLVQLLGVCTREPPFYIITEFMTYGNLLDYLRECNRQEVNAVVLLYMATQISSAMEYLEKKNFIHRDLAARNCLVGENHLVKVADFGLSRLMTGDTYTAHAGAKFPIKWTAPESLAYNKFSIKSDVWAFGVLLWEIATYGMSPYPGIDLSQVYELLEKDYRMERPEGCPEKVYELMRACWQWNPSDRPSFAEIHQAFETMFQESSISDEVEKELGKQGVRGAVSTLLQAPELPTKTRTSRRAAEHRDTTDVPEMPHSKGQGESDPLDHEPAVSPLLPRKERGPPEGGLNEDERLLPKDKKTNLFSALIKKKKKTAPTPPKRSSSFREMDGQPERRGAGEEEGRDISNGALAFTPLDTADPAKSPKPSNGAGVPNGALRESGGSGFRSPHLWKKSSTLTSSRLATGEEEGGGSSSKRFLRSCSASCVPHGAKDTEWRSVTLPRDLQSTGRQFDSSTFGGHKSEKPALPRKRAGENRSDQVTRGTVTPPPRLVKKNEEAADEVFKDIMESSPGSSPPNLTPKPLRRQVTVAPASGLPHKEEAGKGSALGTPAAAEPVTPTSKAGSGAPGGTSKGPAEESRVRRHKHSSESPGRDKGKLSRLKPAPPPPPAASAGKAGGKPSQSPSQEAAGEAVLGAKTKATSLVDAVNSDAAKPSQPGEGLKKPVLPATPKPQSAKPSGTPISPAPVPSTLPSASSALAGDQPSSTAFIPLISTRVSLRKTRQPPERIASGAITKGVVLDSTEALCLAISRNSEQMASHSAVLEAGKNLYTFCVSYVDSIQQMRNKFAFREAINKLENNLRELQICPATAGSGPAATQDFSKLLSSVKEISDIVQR
# Description: as §1
# (§2) The specificity of the ALK-specific biosensors, ALAStide-A and ALAStide-B is shown in an ELISA assay, with YFF peptide used as a positive and negative control. The ALK-specific biosensors were assayed for phosphorylation activity against ALK, Lyn, Abl, and Csk. YFF peptide, whose kinase specificity (as reported in Biochemistry 44, 8533-8542, 2005) is used as a reference. The experimental condition may be similar to those described for the ELISA assay above.
# Csk = Csk (Homo sapiens, UniProt P41240); experiment: ELISA specificity assay, phosphorylation by Csk; conditions: conditions similar to ALK ELISA
# Description: as §1, §2
# Lyn = Lyn (Homo sapiens, UniProt P07948); experiment: ELISA specificity assay, phosphorylation by Lyn; conditions: conditions similar to ALK ELISA
# Sequence of Lyn (P07948 whole entry, species assumed): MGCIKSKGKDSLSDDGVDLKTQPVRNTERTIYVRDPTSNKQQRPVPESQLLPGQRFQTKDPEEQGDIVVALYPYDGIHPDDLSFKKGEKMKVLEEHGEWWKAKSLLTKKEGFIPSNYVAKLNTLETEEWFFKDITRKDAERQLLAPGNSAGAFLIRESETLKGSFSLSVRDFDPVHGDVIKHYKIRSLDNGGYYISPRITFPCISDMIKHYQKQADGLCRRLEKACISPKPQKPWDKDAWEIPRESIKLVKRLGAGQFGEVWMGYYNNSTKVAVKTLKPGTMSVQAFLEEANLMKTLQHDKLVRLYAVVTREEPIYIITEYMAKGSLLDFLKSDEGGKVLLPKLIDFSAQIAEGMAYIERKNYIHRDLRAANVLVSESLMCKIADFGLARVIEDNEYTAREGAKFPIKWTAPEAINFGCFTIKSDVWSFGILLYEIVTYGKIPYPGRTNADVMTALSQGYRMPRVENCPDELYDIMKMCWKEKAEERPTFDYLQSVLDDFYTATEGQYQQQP
# Description: as §1, §2
phosphorylation by Abl (ELISA) (Abl),phosphorylation by Csk (ELISA) (Csk),phosphorylation by Lyn (ELISA) (Lyn),Substance,"phosphorylation by ALK kinase (ELISA), compared with YFF peptide (ALK kinase)"
not phosphorylated,not phosphorylated,not phosphorylated,"FDMDRDIYRMSFFRKGGKbGG (FDMDRDIYRMSFFRKGGK(Biotin)GG) [ALAStide-A, ALK-specific biosensor peptide; Kb is biotinylated lysine]",higher phosphorylation activity than YFF and ALAStide-B
lack of affinity,lack of affinity,lack of affinity,"FGMARDIYRASFFRKGGKbGG (FGMARDIYRASFFRKGGK(Biotin)GG) [YFF peptide, known peptide substrate of ALK in the literature, reference compound]",–
not phosphorylated,not phosphorylated,not phosphorylated,"FDMDRDIYTNTFFRKGGKbGG (FDMDRDIYTNTFFRKGGK(Biotin)GG) [ALAStide-B, ALK-specific biosensor peptide; Kb is biotinylated lysine]",comparable phosphorylation level with YFF peptide
